Data taken from EP4269437A1.
Values joined by “and” are separate entries in the source; they are usually repeats but may differ in a detail not shown here. Identical values can stand only once.

Legend:
Experiment in all cases: ELISA on coated protein, anti-human Fc HRP
[1] = target: murine PD-1 protein (murine) (UniProt Q02242)
CTLA-4 = CTLA-4 (UniProt P16410)
ICOS = ICOS (UniProt Q9Y6W8)
[2] = target: cynomolgus monkey PD-1 protein (cynomolgus monkey) (UniProt B0LAJ3)
CD28 = CD28 (UniProt P10747)

Sequence of ICOS (Q9Y6W8 21-140 limits assumed): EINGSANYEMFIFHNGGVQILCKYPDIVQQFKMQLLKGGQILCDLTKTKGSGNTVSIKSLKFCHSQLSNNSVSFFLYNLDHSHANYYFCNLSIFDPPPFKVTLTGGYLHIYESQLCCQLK
Sequence of cynomolgus monkey PD-1 protein (cynomolgus monkey) (B0LAJ3 entry or part of it limits assumed, form in doubt): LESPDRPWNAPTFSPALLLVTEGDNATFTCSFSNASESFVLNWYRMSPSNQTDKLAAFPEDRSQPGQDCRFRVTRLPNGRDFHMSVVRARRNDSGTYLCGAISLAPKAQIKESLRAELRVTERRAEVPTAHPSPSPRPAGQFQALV
Sequence of CTLA-4 (P16410 36-161 limits assumed): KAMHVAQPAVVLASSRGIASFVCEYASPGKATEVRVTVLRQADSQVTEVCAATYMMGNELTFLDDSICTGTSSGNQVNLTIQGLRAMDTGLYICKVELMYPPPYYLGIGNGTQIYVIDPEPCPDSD
Sequence of murine PD-1 protein (murine) (Q02242 25-167 limits assumed): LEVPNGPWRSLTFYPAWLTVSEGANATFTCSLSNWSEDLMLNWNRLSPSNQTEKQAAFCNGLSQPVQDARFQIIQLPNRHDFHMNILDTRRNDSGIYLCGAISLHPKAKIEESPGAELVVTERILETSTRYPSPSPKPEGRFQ

Q: Which ELISA (OD) [1] does the source give for Keytruda (antibody) here?
A: 0.079 OD and 0.088 OD and 0.09 OD

Q: What about the ELISA (OD) (CTLA-4) of the same substance?
A: 0.09 OD and 0.086 OD and 0.089 OD

Q: And the ELISA (OD) (ICOS)?
A: 0.125 OD and 0.107 OD and 0.131 OD

Q: And the ELISA (OD) [2]?
A: 2.22 OD and 2.32 OD

Q: And the ELISA (OD) (CD28)?
A: 0.066 OD and 0.054 OD and 0.053 OD

Q: What does the source list for Opdivo (antibody)?
A: ELISA (OD) [1]: 0.024 OD and 0.023 OD; ELISA (OD) (CTLA-4): 0.024 OD and 0.022 OD and 0.019 OD; ELISA (OD) (ICOS): 0.023 OD and 0.021 OD and 0.022 OD; ELISA (OD) [2]: 1.89 OD and 1.79 OD and 1.83 OD; ELISA (OD) (CD28): 0.02 OD and 0.021 OD and 0.023 OD
